The supplement of paper PMC7877785
± gives the uncertainty stated by the source.

Experiment: self-splicing fitness, log relative to wild type (ln ratio); higher = more splicing; Tetrahymena group I intron in knt gene, E. coli kanamycin selection, DiMSum; sequences stand for … in CUCUCU…GGAGGGAAAAGUUAUCAGGCAUGCACCUGGUAGCUAGUCUUUAAACCAAUAGAUUGCAUCGGUUUAAAAGGCAAGACCGUCAAAUUGCGGGAAAGGGGUCAACAGCCGUUCAGUACCAAGUCUCAGGGGAAACUUUGAGAUGGCCUUGCAAAGGGUAUGGUAAUAAGCUGACGGACAUGGUCCUAACCACGCAGCCAAGUCCUAAGUCAACAGAUCUUCUGUUGAUAUGGAUGCAGUUCACAGACUAAAUGUCGGUCGGGGAAGAUGUAUUCUUCUCAUAAGAUAUAGUCGGACCUCUCCUUAAUGGGAGCUAGCGGAUGAAGUGAUGCAACACUGGAGCCGCUGGGAACUAAUUUGUAUGCGAAAGUAUAUUGAUUAGUUUUGGAGUACUCGUGGUCG
Outline: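 Pooled colonies went to amplicon sequencing on an Illumina HiSeq 2500 after six replicate transformations. The plates were LB agar with 100 μg/mL carbenicillin, 50 μM IPTG and 0.2% rhamnose, with or without 25 μg/mL kanamycin, incubated overnight at 37°C or 30°C. The E. coli BL21(DE3) library had all eight P1ex-region intron nucleotides randomised, the intron placed in the knt kanamycin-resistance gene on pET-22b(+). DiMSum fitness is the error-weighted combination of replicate fold changes, kanamycin against none, normalised to wild type.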

Sequence	self-splicing fitness (ln) (30 °C)	self-splicing fitness (ln) (37 °C)
UAGCAGCAAUAUUACGUUUU	-2.6 ± 0.12	-2.31 ± 0.19
UAGGAGCAAUAUUACGAGAG	-3.02 ± 0.21	
UAGGAGCAAUAUUACGAUAU	-3.96 ± 0.33	-2.46 ± 0.28
UAGGAGCAAUAUUACGCAAU		-1.73 ± 0.38
UAGGAGCAAUAUUACGCCAU	-3.74 ± 0.43	-2.72 ± 0.48
UAGGAGCAAUAUUACGCGGC	-2.42 ± 0.39	
UAGGAGCAAUAUUACGCUAA		-1.57 ± 0.41
UAGGAGCAAUAUUACGCUCA	-1.55 ± 0.19	-1.37 ± 0.16
UAGGAGCAAUAUUACGCUUU	-2.54 ± 0.32	-1.66 ± 0.29
UAGGAGCAAUAUUACGGACU	-3.22 ± 0.25	-2.41 ± 0.22
UAGGAGCAAUAUUACGGAGG	-4.35 ± 0.42	-2.73 ± 0.32
UAGGAGCAAUAUUACGGUUG	-3.11 ± 0.36	-2.4 ± 0.24
UAGGAGCAAUAUUACGUACA	-2.47 ± 0.22	-0.906 ± 0.18
UAGGAGCAAUAUUACGUGGG	-3.17 ± 0.24	-3.32 ± 0.38
UAGGAGCAAUAUUACGUUAG	-3.8 ± 0.3	-2.71 ± 0.49
UAGGAGCAAUAUUACGUUCA	-2.05 ± 0.16	-1.02 ± 0.19
UAGUAGCAAUAUUACGAACG	-0.961 ± 0.13	-0.0932 ± 0.15
UAGUAGCAAUAUUACGACGC	-3.61 ± 0.25	-0.996 ± 0.21
UAGUAGCAAUAUUACGACUA	-0.0384 ± 0.12	0.251 ± 0.12
UAGUAGCAAUAUUACGAGUA	-1.44 ± 0.11	-0.61 ± 0.084
UAGUAGCAAUAUUACGAUAC	-2.73 ± 0.44	
UAGUAGCAAUAUUACGAUCA	-0.544 ± 0.088	0.306 ± 0.12
UAGUAGCAAUAUUACGAUGA	-1.59 ± 0.26	-1.7 ± 0.28
UAGUAGCAAUAUUACGCCGU	-2.58 ± 0.24	-2.23 ± 0.3
UAGUAGCAAUAUUACGCUAA	-2.12 ± 0.28	-1.3 ± 0.15

Sequence	self-splicing fitness (ln) (30 °C)	self-splicing fitness (ln) (37 °C)
UAGUAGCAAUAUUACGCUUC		-1.91 ± 0.37
UAGUAGCAAUAUUACGGCAA	-0.858 ± 0.15	-1.04 ± 0.16
UAGUAGCAAUAUUACGGGUG	-0.96 ± 0.071	-0.773 ± 0.079
UAGUAGCAAUAUUACGGUAG	-2.56 ± 0.18	-1.73 ± 0.22
UAGUAGCAAUAUUACGGUCA	-0.074 ± 0.16	-0.852 ± 0.18
UAGUAGCAAUAUUACGUAAA	-3.01 ± 0.21	-1.03 ± 0.15
UAGUAGCAAUAUUACGUAAC	-3.54 ± 0.15	-1.89 ± 0.15
UAGUAGCAAUAUUACGUACG	-1.24 ± 0.16	0.127 ± 0.16
UAGUAGCAAUAUUACGUACU	-0.816 ± 0.12	-0.109 ± 0.12
UAGUAGCAAUAUUACGUCGG	-2.04 ± 0.08	-1.53 ± 0.12
UAGUAGCAAUAUUACGUGCA	-0.861 ± 0.12	-0.189 ± 0.11
UAGUAGCAAUAUUACGUGUC		-2.22 ± 0.34
UAUAAGCAAUAUUACGAAAA	-1.72 ± 0.31	-1.27 ± 0.31
UAUAAGCAAUAUUACGACUU	-0.386 ± 0.13	-0.681 ± 0.13
UAUAAGCAAUAUUACGAGGC		-2.5 ± 0.39
UAUAAGCAAUAUUACGAUAG	-1.4 ± 0.16	-0.486 ± 0.17
UAUAAGCAAUAUUACGAUGU	-2.49 ± 0.11	-1.71 ± 0.12
UAUAAGCAAUAUUACGCCCU	-1.15 ± 0.16	0.38 ± 0.16
UAUAAGCAAUAUUACGCUCG	-0.59 ± 0.082	-0.442 ± 0.11
UAUAAGCAAUAUUACGGACC	-2.68 ± 0.16	-2.07 ± 0.22
UAUAAGCAAUAUUACGGACG	0.119 ± 0.088	0.194 ± 0.11
UAUAAGCAAUAUUACGGGGA	-1.81 ± 0.19	-1.91 ± 0.23
UAUAAGCAAUAUUACGUAAG	-2.45 ± 0.15	-1.08 ± 0.16
UAUAAGCAAUAUUACGUCGU	-2.37 ± 0.12	-1.69 ± 0.17
UAUAAGCAAUAUUACGUCUG	-0.517 ± 0.081	0.316 ± 0.098

Sequence	self-splicing fitness (ln) (30 °C)	self-splicing fitness (ln) (37 °C)
UAUAAGCAAUAUUACGUCUU	-1 ± 0.085	-0.554 ± 0.1
UAUAAGCAAUAUUACGUUGA	-3.52 ± 0.22	-1.25 ± 0.12
UAUAAGCAAUAUUACGUUUA	-1.03 ± 0.1	-0.548 ± 0.11
UAUAAGCAAUAUUACGUUUU	-3.44 ± 0.23	-1.85 ± 0.15
UAUCAGCAAUAUUACGAAUU	-0.95 ± 0.076	0.113 ± 0.09
UAUCAGCAAUAUUACGAGCC	-3.24 ± 0.34	-2.33 ± 0.3
UAUCAGCAAUAUUACGAGGA	-0.877 ± 0.13	-1.39 ± 0.14
UAUCAGCAAUAUUACGAGGU	-2.73 ± 0.28	-3.78 ± 0.37
UAUCAGCAAUAUUACGAGUA	-0.337 ± 0.079	-0.301 ± 0.088
UAUCAGCAAUAUUACGAUGG	-0.913 ± 0.062	0.0535 ± 0.083
UAUCAGCAAUAUUACGCAAC	-2.71 ± 0.2	-1.52 ± 0.17
UAUCAGCAAUAUUACGCGCC	-1.34 ± 0.18	-0.193 ± 0.26
UAUCAGCAAUAUUACGCGCU	-2.73 ± 0.21	-1.76 ± 0.23
UAUCAGCAAUAUUACGCGGU	-2.68 ± 0.13	-2.97 ± 0.27
UAUCAGCAAUAUUACGCUCA	-0.0488 ± 0.092	0.0773 ± 0.11
UAUCAGCAAUAUUACGGACG	-0.108 ± 0.091	0.00709 ± 0.11
UAUCAGCAAUAUUACGGAGC	-3.14 ± 0.17	-3.71 ± 0.19
UAUCAGCAAUAUUACGGCAA	-0.306 ± 0.12	0.808 ± 0.15
UAUCAGCAAUAUUACGGGCG	0.0109 ± 0.065	0.684 ± 0.088
UAUCAGCAAUAUUACGGUCU	-0.719 ± 0.092	-0.878 ± 0.11
UAUCAGCAAUAUUACGUCCU	-1.44 ± 0.18	-1.01 ± 0.2
UAUCAGCAAUAUUACGUUAC	-4.75 ± 0.39	-2.6 ± 0.21
UAUGAGCAAUAUUACGAACU		-1.57 ± 0.26
UAUGAGCAAUAUUACGAAGG	-3.5 ± 0.2	-1.4 ± 0.22
UAUGAGCAAUAUUACGAAUA	-2.94 ± 0.27	-2.22 ± 0.21

Sequence	self-splicing fitness (ln) (30 °C)	self-splicing fitness (ln) (37 °C)
UAUGAGCAAUAUUACGACAA	-2.78 ± 0.29	-0.6 ± 0.18
UAUGAGCAAUAUUACGACAC		-1.97 ± 0.41
UAUGAGCAAUAUUACGACAU	-3.523 ± 0.029	-2.56 ± 0.042
UAUGAGCAAUAUUACGAGAA	-2.28 ± 0.37	-0.332 ± 0.24
UAUGAGCAAUAUUACGCAAA	-2.74 ± 0.45	
UAUGAGCAAUAUUACGCAAU	-3.54 ± 0.25	-2.32 ± 0.18
UAUGAGCAAUAUUACGCGAC	-2.82 ± 0.44	-0.954 ± 0.39
UAUGAGCAAUAUUACGCGCC	-4.05 ± 0.42	
UAUGAGCAAUAUUACGCGGA	-2.39 ± 0.25	-1.69 ± 0.24
UAUGAGCAAUAUUACGCGUG	-1.88 ± 0.12	-1.04 ± 0.11
UAUGAGCAAUAUUACGGAUG	-2.09 ± 0.12	-1.64 ± 0.17
UAUGAGCAAUAUUACGGCGU	-3.11 ± 0.21	-2.38 ± 0.29
UAUGAGCAAUAUUACGGUCU	-2.78 ± 0.28	-2.96 ± 0.4
UAUGAGCAAUAUUACGUCGA	-3.12 ± 0.38	-2.47 ± 0.36
UAUGAGCAAUAUUACGUCUU	-2.71 ± 0.27	-1.93 ± 0.23
UAUGAGCAAUAUUACGUGUG	-2.41 ± 0.097	-1.1 ± 0.085
UAUGAGCAAUAUUACGUGUU	-3.34 ± 0.17	-2.99 ± 0.18
UAUUAGCAAUAUUACGACAG	-1.58 ± 0.18	-0.556 ± 0.19
UAUUAGCAAUAUUACGACCG	0.0866 ± 0.13	-0.0729 ± 0.16
UAUUAGCAAUAUUACGACUA	-0.146 ± 0.096	0.46 ± 0.11
UAUUAGCAAUAUUACGAGAC	-2.57 ± 0.47	
UAUUAGCAAUAUUACGAGUA	-0.732 ± 0.25	-0.0897 ± 0.24
UAUUAGCAAUAUUACGAUCA	-0.168 ± 0.11	-0.249 ± 0.14
UAUUAGCAAUAUUACGAUGA	-0.641 ± 0.11	0.262 ± 0.13
